Measured values taken from paper PMC10325834, “Characteristics of Mycobacterium tuberculosis PtpA interaction and activity on the alpha subunit of human mitochondrial trifunctional protein, a key enzyme of lipid metabolism” (Frontiers in Cellular and Infection Microbiology, 2023).

Biological target: T1, human mitochondrial trifunctional protein (hTFP α/β) immunopurified from macrophages (human (endogenous in macrophages), UniProt P40939-1 37-763; P55084 34-474, phosphotyrosine: 21% of the immunopurified hTFP is phosphorylated on Tyr (sites not identified))
T1 construct: also called immunopurified hTFP; hTFPα from macrophages; source: endogenous, macrophage extract; immunoprecipitated with anti-TFP monoclonal antibody (ab110302) on beads, eluted with 50 mM citrate pH 2.6
Experiment: SPR
Conditions: both partners purified

T1 sequence (P40939 37-763, chain 1 of 2): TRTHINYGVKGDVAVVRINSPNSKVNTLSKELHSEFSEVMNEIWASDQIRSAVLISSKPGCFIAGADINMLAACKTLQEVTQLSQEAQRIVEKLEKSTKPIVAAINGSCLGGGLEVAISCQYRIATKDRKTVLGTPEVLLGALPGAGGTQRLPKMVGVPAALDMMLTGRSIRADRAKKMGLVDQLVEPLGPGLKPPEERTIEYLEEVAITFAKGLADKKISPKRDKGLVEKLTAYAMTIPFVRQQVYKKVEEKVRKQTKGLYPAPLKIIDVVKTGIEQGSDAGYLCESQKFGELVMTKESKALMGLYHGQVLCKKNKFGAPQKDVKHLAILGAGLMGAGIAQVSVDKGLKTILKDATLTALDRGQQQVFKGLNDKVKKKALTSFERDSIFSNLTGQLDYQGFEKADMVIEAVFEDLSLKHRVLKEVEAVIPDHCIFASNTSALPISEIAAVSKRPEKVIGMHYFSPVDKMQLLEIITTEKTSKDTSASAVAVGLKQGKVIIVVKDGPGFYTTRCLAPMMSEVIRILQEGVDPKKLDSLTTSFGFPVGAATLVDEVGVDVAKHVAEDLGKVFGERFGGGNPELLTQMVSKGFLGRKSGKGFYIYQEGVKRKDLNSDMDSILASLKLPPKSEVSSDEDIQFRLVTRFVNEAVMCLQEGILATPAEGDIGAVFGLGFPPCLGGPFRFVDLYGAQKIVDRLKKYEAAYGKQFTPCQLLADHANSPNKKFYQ
T1 sequence (P55084 34-474, chain 2 of 2): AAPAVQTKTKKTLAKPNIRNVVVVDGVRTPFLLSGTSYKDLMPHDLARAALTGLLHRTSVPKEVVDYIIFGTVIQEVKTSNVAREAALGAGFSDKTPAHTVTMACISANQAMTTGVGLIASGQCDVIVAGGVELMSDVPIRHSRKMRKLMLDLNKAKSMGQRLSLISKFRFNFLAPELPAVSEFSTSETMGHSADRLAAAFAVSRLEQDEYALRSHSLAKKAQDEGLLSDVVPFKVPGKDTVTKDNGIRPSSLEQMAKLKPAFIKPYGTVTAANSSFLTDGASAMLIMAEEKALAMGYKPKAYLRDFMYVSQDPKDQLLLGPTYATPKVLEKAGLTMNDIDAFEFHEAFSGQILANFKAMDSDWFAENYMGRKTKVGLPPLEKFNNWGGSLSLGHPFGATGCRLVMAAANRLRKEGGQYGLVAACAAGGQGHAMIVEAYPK

B1: Mycobacterium tuberculosis PtpA, recombinant wild type (enzyme)
chain: MSDPLHVTFVCTGNICRSPMAEKMFAQQLRHRGLGDAVRVTSAGTGNWHVGSCADERAAGVLRAHGYPTDHRAAQVGTEHLAADLLVALDRNHARLLRQLGVEAARVRMLRSFDPRSGTHALDVEDPYYGDHSDFEEVFAVIESALPGLHDWVDERLARNGPS
notes: also called rPtpA; PtpA-wt
B1 showed a Kd of 310 nM.
